From US20120014945A1 (ACADEMIA SINICA, published 2012)

Tests used:
[1] = target: DENV-2 (16681) envelope (E) protein (dengue virus type 2 (DENV-2 16681)) (UniProt P29990); test: cell-based or functional assay
[2] = target: T1, DENV-4 (H241) envelope (E) protein (dengue virus type 4 (DENV-4 H241), UniProt Q58HT7 280-774); test: ELISA on DENV-4-infected C6/36 cells
T1 construct: whole, on cells

[3] = target: T2, DENV-3 (H87) envelope (E) protein (dengue virus type 3 (DENV-3 H87), UniProt P27915 281-773); test: ELISA on DENV-3-infected C6/36 cells
T2 construct: whole, on cells

T1 sequence (Q58HT7 280-774): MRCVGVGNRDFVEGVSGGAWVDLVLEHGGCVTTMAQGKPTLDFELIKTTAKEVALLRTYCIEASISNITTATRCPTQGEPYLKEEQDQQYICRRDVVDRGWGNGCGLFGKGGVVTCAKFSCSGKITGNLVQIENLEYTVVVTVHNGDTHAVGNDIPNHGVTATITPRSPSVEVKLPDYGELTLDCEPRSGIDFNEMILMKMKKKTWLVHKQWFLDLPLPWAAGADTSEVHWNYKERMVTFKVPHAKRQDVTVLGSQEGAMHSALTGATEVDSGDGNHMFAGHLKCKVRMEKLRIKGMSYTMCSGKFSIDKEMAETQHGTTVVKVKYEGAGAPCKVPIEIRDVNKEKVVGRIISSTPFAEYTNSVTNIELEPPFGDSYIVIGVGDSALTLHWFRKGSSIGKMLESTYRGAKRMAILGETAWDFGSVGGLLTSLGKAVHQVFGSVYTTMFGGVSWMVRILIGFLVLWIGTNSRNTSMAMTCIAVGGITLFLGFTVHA

Molecule: 3H5 (antibody)
- PRNT50 (µg/ml), D2 [1]: < 0.41 µg/mL
- concentration of complete inhibition of viral infection (PRNT) [1]: 11 µg/mL

Molecule: normal mouse IgG (antibody)
- neutralizing activity (PRNT) [1]: > 100 µg/mL

Molecule: 4G2 (antibody)
- PRNT50 (µg/ml), D2 [1]: < 11 µg/mL

B1: DB25-2 (antibody, V domains shown)
VH: QVQLKESGPGLVQPSQSLSITCTVSGFSLTDYGVHWIRQSPGKGLEWLGVIWRGGITDYNAAFMSRLSITKDNSKSQVFFKMDSLQPDDSAIYYCAKNFGTHYYGSNYGNFDYWGQGTTLTVSS
VL: VVMTQTPKFLLVSAGDRVTITCKASQSVSNDVAWYQQKPGQSPKLLIYYVSNRYSGVPDRFTGSGYGTDFTFTINTVQAEDLAVYFCQQDYSSPYTFGGGTKLEIK
- binding result [2]: no binding (tested: A490 < 0.2 (MAb at 1 µg/ml))
- binding result [3]: no binding (tested: A490 < 0.2 (MAb at 1 µg/ml))
